{"source": "paper PMC3176292", "test_in_all_cases": "co-IP; LUMIER: Renilla luciferase-Smad3 and Flag-tagged partner co-expressed with constitutively active Alk5 in HEK-293; Flag protein captured from cleared lysate (TNE: 10 mM Tris-HCl pH 7.8, 150 mM NaCl, 1 mM EDTA, 1% Igepal CA-630) on anti-Flag 96-well plates, 2 h at 4 °C; co-precipitated Renilla luciferase activity, TrxGA background subtracted, percent of wild-type Smad3", "key": {"Flag-Smad3, full length": {"target": "Flag-Smad3, full length (UniProt P84022)", "sequence (P84022 whole entry)": "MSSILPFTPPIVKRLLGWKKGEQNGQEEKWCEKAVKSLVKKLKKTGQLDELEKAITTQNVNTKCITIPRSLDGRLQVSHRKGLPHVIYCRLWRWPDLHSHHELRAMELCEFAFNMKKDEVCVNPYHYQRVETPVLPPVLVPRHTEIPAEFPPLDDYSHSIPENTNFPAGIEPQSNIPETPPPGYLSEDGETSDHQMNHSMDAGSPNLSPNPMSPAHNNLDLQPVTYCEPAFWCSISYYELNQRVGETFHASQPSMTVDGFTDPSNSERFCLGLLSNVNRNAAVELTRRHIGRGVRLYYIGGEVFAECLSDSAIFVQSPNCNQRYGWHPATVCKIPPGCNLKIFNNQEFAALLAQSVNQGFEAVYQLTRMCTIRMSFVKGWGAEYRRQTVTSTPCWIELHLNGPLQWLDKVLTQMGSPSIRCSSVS"}, "[1]": {"target": "SARA Smad-binding domain (amino acids 665–721) on the 3xFlag-thioredoxin scaffold (UniProt O95405)", "sequence (O95405 767-823)": "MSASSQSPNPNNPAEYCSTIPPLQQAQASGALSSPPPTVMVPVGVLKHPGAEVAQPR"}, "[2]": {"target": "Ski Smad-binding domain (amino acids 2–56) on the 3xFlag-thioredoxin scaffold (UniProt P12755)", "sequence (P12755 2-56)": "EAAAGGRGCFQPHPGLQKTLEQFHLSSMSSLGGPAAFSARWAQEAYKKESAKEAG"}, "Flag-SARA, full length": {"target": "Flag-SARA, full length (UniProt O95405)", "sequence (O95405 whole entry)": "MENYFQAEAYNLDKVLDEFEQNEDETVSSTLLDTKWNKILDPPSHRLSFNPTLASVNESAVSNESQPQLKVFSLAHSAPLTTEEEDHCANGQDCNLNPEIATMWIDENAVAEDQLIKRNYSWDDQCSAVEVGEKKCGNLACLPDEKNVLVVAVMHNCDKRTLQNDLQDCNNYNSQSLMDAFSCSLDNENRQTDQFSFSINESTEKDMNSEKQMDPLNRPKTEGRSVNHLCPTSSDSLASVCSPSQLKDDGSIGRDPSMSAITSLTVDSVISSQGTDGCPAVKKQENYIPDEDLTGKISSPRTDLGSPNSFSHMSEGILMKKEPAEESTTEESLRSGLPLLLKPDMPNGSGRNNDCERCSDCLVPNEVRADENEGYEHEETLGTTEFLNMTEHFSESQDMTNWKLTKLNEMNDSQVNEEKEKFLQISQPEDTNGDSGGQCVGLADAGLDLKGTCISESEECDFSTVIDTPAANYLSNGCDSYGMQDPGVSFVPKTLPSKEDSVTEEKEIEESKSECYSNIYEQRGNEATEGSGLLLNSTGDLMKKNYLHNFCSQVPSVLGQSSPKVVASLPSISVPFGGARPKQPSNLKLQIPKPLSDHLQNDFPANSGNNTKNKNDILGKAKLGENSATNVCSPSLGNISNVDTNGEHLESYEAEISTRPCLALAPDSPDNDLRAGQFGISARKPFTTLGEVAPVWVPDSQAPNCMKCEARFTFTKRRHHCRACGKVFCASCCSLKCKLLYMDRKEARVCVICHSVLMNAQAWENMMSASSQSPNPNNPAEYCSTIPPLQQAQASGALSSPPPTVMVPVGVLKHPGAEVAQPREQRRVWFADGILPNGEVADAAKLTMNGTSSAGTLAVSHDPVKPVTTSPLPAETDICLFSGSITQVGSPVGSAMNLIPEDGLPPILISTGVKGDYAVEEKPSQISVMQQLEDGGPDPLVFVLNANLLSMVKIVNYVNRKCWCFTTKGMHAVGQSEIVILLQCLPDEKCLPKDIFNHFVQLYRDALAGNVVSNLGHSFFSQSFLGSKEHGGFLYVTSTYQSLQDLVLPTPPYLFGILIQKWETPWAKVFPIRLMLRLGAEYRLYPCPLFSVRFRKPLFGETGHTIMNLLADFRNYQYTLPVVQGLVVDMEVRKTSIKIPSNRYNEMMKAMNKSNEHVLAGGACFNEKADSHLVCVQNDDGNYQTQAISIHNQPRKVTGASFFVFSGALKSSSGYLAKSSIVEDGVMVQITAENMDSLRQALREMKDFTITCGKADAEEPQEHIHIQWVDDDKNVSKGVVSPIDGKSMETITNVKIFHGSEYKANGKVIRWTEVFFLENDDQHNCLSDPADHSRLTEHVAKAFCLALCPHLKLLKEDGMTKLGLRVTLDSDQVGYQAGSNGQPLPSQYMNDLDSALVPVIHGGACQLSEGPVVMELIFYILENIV"}, "Flag-Smad4, full length": {"target": "Flag-Smad4, full length (UniProt Q13485)", "sequence (Q13485 whole entry)": "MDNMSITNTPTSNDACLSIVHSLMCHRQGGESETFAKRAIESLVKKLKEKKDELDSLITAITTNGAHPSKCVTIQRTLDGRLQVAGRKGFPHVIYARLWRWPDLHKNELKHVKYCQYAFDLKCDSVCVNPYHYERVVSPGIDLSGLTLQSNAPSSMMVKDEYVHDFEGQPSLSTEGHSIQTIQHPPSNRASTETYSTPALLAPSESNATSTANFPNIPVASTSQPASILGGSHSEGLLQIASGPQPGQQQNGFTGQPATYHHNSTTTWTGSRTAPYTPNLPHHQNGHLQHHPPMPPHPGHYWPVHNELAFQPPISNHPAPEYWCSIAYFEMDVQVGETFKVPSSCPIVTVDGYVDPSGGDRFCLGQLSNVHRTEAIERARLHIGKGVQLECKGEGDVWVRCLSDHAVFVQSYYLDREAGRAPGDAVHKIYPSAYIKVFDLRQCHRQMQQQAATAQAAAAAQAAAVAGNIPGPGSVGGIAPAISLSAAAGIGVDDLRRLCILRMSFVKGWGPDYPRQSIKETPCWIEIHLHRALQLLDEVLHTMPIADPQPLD"}, "[3]": {"target": "SIP1 Smad-binding domain (amino acids 315–487) on the 3xFlag-thioredoxin scaffold (UniProt Q9R0G7)", "sequence (Q9R0G7 315-487)": "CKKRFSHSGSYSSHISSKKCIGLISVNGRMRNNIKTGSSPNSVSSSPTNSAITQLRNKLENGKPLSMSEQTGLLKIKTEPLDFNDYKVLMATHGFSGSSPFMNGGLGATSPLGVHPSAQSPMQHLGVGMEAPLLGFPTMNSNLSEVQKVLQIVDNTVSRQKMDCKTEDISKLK"}, "[4]": {"target": "Smurf2 Smad-binding domain (amino acids 252–330) on the Flag-thioredoxin scaffold (UniProt Q9HAU4)", "sequence (Q9HAU4 252-330)": "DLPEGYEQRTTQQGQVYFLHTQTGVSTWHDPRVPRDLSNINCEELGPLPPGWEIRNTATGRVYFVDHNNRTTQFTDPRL"}, "[5]": {"target": "Flag-SkiW274E, full length (UniProt P12755)", "sequence (P12755 whole entry W274E)": "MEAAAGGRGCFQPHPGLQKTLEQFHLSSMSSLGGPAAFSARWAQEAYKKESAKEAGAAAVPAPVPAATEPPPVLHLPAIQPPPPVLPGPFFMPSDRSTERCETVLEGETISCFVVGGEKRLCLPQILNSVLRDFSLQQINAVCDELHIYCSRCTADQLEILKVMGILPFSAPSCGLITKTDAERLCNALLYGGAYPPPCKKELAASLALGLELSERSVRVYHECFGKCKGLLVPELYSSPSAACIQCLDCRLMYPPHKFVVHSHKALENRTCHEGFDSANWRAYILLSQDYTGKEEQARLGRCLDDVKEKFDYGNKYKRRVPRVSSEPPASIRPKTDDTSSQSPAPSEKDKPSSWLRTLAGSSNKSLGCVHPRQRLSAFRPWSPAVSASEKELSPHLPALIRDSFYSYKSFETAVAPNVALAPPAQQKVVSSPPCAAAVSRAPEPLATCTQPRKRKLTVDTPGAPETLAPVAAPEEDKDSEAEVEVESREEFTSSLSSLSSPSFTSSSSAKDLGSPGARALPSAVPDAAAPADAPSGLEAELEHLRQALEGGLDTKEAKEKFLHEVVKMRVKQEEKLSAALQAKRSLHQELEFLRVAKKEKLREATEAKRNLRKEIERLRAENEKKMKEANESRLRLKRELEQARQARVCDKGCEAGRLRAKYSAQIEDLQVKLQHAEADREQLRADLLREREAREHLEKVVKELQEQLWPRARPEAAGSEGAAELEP"}}, "data": [{"substance": "Renilla luciferase-Smad3 Del-PPGY (182–185) (from UniProt P84022 1-425) (natural protein)", "values": [{"measurement": "percent binding relative to wild-type Smad3", "setting": "Flag-Smad3, full length", "result": 86, "unit": "%"}, {"measurement": "percent binding relative to wild-type Smad3", "setting": "[1]", "result": 129, "unit": "%"}, {"measurement": "percent binding relative to wild-type Smad3", "setting": "[2]", "result": 160, "unit": "%"}, {"measurement": "percent binding relative to wild-type Smad3", "setting": "Flag-SARA, full length", "result": 158, "unit": "%"}, {"measurement": "percent binding relative to wild-type Smad3", "setting": "Flag-Smad4, full length", "result": 120, "unit": "%"}, {"measurement": "percent binding relative to wild-type Smad3", "setting": "[3]", "result": 200, "unit": "%"}, {"measurement": "percent binding relative to wild-type Smad3", "setting": "[4]", "result": 3, "unit": "%"}, {"measurement": "percent binding relative to wild-type Smad3", "setting": "[5]", "result": 83, "unit": "%"}]}]}
